From PMC2864739, “Crystal Structure of the Neutralizing Llama VHH D7 and Its Mode of HIV-1 gp120 Interaction” (PLoS ONE, 2010)
Changes are numbered by the printed parent chain.

B1: llama heavy chain antibody fragment VHH D7, wild type (VHH)
VHH: AVQLVESGGGLAQAGGSLRLSCTVSGRTSSSHDMGWFRQAPGKEREFVAAISWSGGTTNYADSVKGRFAISKDNAKNAVSLQMNSLKPEDTAVYYCAAKWRPLRYSDNPSNSDYNYWGQGTQVTVSS
notes: PDB 2xa3 holds D7 with the framework changes Val5Gln, Ala11Val, Ala61Val, Ala68Asp and Ser79Tyr against wild type D7
B2: VHH D7 Leu99→Ala (VHH)
VHH: B1 VHH with L103A
notes: PDB 2xa3 holds D7 with five framework changes) with the stated CDR3 mutation; Chothia numbering
B3: VHH D7 Tyr100A→Ala (VHH)
VHH: B1 VHH with Y105A
notes: PDB 2xa3 holds D7 with five framework changes) with the stated CDR3 mutation; Chothia numbering (100A is an insertion position)
B4: VHH D7 Asp100C→Ala (VHH)
VHH: B1 VHH with D107A
notes: PDB 2xa3 holds D7 with five framework changes) with the stated CDR3 mutation; Chothia numbering (100C is an insertion position)
B5: VHH D7 double mutant Asn101→Tyr/Tyr102→Asp (VHH)
VHH: B1 VHH with N115Y, Y116D
notes: PDB 2xa3 holds D7 with five framework changes) with the stated CDR3 mutations; Chothia numbering; also called double mutant Asn^101Tyr^102
B6: VHH D7 Lys95→Ser (VHH)
VHH: B1 VHH with K99S
notes: as for B2
B7: VHH D7 Trp96→Ala (VHH)
VHH: B1 VHH with W100A
notes: as for B2
B8: VHH D7 Asn100D→Ala (VHH)
VHH: B1 VHH with N108A
notes: PDB 2xa3 holds D7 with five framework changes) with the stated CDR3 mutation; Chothia numbering (100D is an insertion position)

These binders were tested against T1, HIV-1 envelope glycoprotein gp120 (IIIB) (HIV-1 IIIB (HXB2 clone entry), UniProt P04578) (assay: cell-based or functional assay). Settings: not given.
In the case of B1, the “IC50 of neutralisation of HIV-1 IIIB in TZM-bl cells, Average” value (“IC50 of neutralisation … Average” for short) is reported as 0.054 µg/mL, the “IC50 of neutralisation of HIV-1 IIIB in TZM-bl cells, Exp1” value (shortened to “IC50 of neutralisation … Exp1”) is reported as 0.066 µg/mL and the “IC50 of neutralisation of HIV-1 IIIB in TZM-bl cells, Exp2” value (“IC50 of neutralisation … Exp2” for short) is reported as 0.041 µg/mL. With B2 the “IC50 of neutralisation … Average” value was 0.69 µg/mL, the “IC50 of neutralisation … Exp1” value was 0.817 µg/mL and the “IC50 of neutralisation … Exp2” value was 0.56 µg/mL. B3 was tested, and the “IC50 of neutralisation … Average” value was 0.023 µg/mL, the “IC50 of neutralisation … Exp1” value was 0.028 µg/mL and the “IC50 of neutralisation … Exp2” value was 0.018 µg/mL. In the case of B4, the “IC50 of neutralisation … Average” value is reported as 0.027 µg/mL, the “IC50 of neutralisation … Exp1” value is reported as 0.4 µg/mL and the “IC50 of neutralisation … Exp2” value is reported as 0.014 µg/mL. With B5 the “IC50 of neutralisation … Average” value was 0.011 µg/mL, the “IC50 of neutralisation … Exp1” value was 0.017 µg/mL and the “IC50 of neutralisation … Exp2” value was 0.005 µg/mL. With B6 the “IC50 of neutralisation … Average” value was 3 µg/mL, the “IC50 of neutralisation … Exp1” value was 3.43 µg/mL and the “IC50 of neutralisation … Exp2” value was 2.64 µg/mL. In the case of B7, the “IC50 of neutralisation … Average” value is reported as 2.6 µg/mL, the “IC50 of neutralisation … Exp1” value is reported as 2.72 µg/mL and the “IC50 of neutralisation … Exp2” value is reported as 2.43 µg/mL.

Each binder was assayed against T1, HIV-1 envelope glycoprotein gp120 (IIIB) (assay: SPR; gp120 (IIIB) coupled covalently to a CM5 chip; D7 or D7 mutants at 25 and 100 nM flowed over; Biacore X; 10 mM HEPES pH 7.5, 100 mM NaCl, 0.05% P20; 30 µl/min; association 3 min, dissociation 15 min; simultaneous fit of association and dissociation). Settings: both partners purified.
For B1, the Kd was 2.91 ± 0.87 nM, the koff was 0.000551 s⁻¹ and the kon was 155000 M⁻¹ s⁻¹. B2 showed a Kd of 69.9 ± 14.2 nM, a koff of 0.005 s⁻¹ and a kon of 14000 M⁻¹ s⁻¹. B3 was tested, and the Kd was 1.55 ± 0.07 nM, the koff was 0.000359 s⁻¹ and the kon was 233000 M⁻¹ s⁻¹. For B4, the Kd was 0.84 ± 0.12 nM, the koff was 0.000199 s⁻¹ and the kon was 236000 M⁻¹ s⁻¹. B5 showed a Kd of 0.18 ± 0.15 nM, a koff of 3.3e-05 s⁻¹ and a kon of 187000 M⁻¹ s⁻¹. For B6, the Kd was 377 ± 276 nM, the koff was 0.00236 s⁻¹ and the kon was 13000 M⁻¹ s⁻¹. B7 showed a Kd of 27.9 ± 20.5 nM, a koff of 0.00313 s⁻¹ and a kon of 146000 M⁻¹ s⁻¹. Work on B8 yielded a Kd of 0.51 ± 0.02 nM, a koff of 0.000128 s⁻¹ and a kon of 252000 M⁻¹ s⁻¹.
